Results on one molecule are retold here after paper PMC7351599.

For the assay, the target named is TMIEdel80–100-HA (UniProt Q8K467). Nature of the assay: co-IP.

B1: MYC-TMC1 (natural protein)
chain: MLQIQVEEKEEDTEESSSEEEEDKLPRRESLRPKRKRTRDVINEDDPEPEPEDEETRKAREKERRRRLRRGAEEEEEIDEEELERLKALLDENRQMIATVKCKPWKMEKKIEVLKEAKKFVSENEGALGKGKGKKWFAFKMMMAKKWAKFLRDFENFKAACVPWENKIKAIESQFGSSVASYFLFLRWMYGVNMVLFVLTFSLIMLPEYLWGLPYGSLPRKTVPRAEEASAANFGVLYDFNGLAQYSVLFYGYYDNKRTIGWLNFRLPLSYFLVGIMCIGYSFLVVLKAMTKNIGDDGGGDDNTFNFSWKVFCSWDYLIGNPETADNKFNSITMNFKEAIIEERAAQVEENIHLIRFLRFLANFFVFLTLGASGYLIFWAVKRSQEFAQQDPDTLGWWEKNEMNMVMSLLGMFCPTLFDLFAELEDYHPLIALKWLLGRIFALLLGNLYVFILALMDEINNKIEEEKLVKANITLWEANMIKAYNESLSGLSGNTTGAPFFVHPADVPRGPCWETMVGQEFVRLTVSDVLTTYVTILIGDFLRACFVRFCNYCWCWDLEYGYPSYTEFDISGNVLALIFNQGMIWMGSFFAPSLPGINILRLHTSMYFQCWAVMCCNVPEARVFKASRSNNFYLGMLLLILFLSTMPVLYMIVSLPPSFDCGPFSGKNRMFEVIGETLEHDFPSWMAKILRQLSNPGLVIAVILVMVLTIYYLNATAKGQKAANLDLKKKMKQQALENKMRNKKMAAARAAAAAGGQ
B1 showed a percent reduction of co-IP against TMIE-HA of 80%.
